The test deals with T1, proteinase 3 and neutrophil elastase (PR1) peptide on HLA-A*02:01 (human).
T1 peptide: VLQELNVTV
Put plainly: multimer staining. The method, then: Briefly, from PBMC that were derived from a healthy HLA-A2+ donor, the inventor elicited bulk PR1-CTL cell lines after 4 to 6 weeks of weekly stimulations with the PR1 peptide+low dose IL-2 and IL-7 in vitro, as outlined in FIG. 1. These CTL were subsequently placed into limiting dilution culture and after an additional 14 to 20 days. The cells were expanded with anti-CD3/anti-CD28 beads+IL-2+feeder cells+IL-15 to sufficient numbers and were then tested. The PR1-CTLs were stained with PR1-CTL tetramer to confirm specificity (FIG. 2). Unique cDNA sequences from the CDR3-α and CDR3-β regions from two different PR1-specific CTL clones that were derived from an HLA-A2+ healthy individual were obtained. The inventor reported that one PR1-CTL clone (F4) bears a relatively high avidity TCR for the PR1/HLA-A2 ligand, while the other CTL clone (B12) bears a relatively low avidity TCR. These conclusions are supported with PR1/HLA-A2 tetramer binding data and with cytotoxicity assays that show F4 to have a higher tetramer staining fluorescence intensity and a lower threshold of activation than the B12 clone, respectively. TCR-αβ CDR3 nucleic acid sequence data is provided showing clonality at the molecular level.

We go through two molecules from patent US20080064631A1 (published 2008).

B1: High avidity PR1-CTL clone F4 TCR (TCR, V domains shown)
Valpha: GQNIDQPTEMTATEGAIVQINCTYQTSGFNGLFWYQQHAGEAPTFLSYNVLDGLEEKGRFSSFLSRSKGYSYLLLKELQMKDSASYLCAVSRDSGNTPLVFGKGTRLSVIA
Vbeta: DSGVTQTPKHLITATGQRVTLRCSPRSGDLSVYWYQQSLDQGLQFLIQYYNGEERAKGNILERFSAQQFPDLHSELNLSSLELGDSALYFCASSPSGTGNIQYFGAGTRLSVL
In the case of B1, the binding result was “recognises”.

B2: Low avidity PR1-CTL clone B12 TCR (TCR, V domains shown)
Valpha: AQSVTQPDIHITVSEGASLELRCNYSYGATPYLFWYVQSPGQGLQLLLKYFSGDTLVQGIKGFEAEFKRSQSSFNLRKPSVHWSDAAEYFCAVGGGARLMFGDGTQLVVKP
Vbeta: KAGVTQTPRYLIKTRGQQVTLSCSPISGHRSVSWYQQTPGQGLQFLSEYFSETQRNKGNFPGRFSGRQFSNPRSEMNVSTLELGDSALYLCASSGEAFYEQYFGPGTRLTVT
As to B2, the binding result is recorded as “recognises”.
